Test results as given in the Human Domainome abundance scans (Beltran et al. 2025).
± gives the uncertainty stated by the source.

B1: Advillin, residues 785 to 819; numbered along this chain, O75366 (parent)
chain: LSEQDFVSVFGITRGQFAALPGWKQLQMKKEKGLF

Variants of: B1
Assay: abundance fitness (aPCA) (normalised: wild type 0, dead -1); higher = more abundant; growth selection in yeast, the domain comes from the species named
Details: Homo sapiens

Variant	abundance fitness
LSEQDFVSVFGITRGQFAALNGWKQLQMKKEKGLF [P21N]	-0.51 ± 0.23
LSEQDFVSVFGITRGQFAALAGWKQLQMKKEKGLF [P21A]	-0.414 ± 0.061
LSEQDFVSVFGITRGQFAALQGWKQLQMKKEKGLF [P21Q]	-0.271 ± 0.17
LSEQDFVSVFGITRGQFAALGGWKQLQMKKEKGLF [P21G]	-0.32 ± 0.067
LSEQDFVSVFGITRGQFAALEGWKQLQMKKEKGLF [P21E]	-0.246 ± 0.057
LSEQDFVSVFGITRGQFAALWGWKQLQMKKEKGLF [P21W]	-0.617 ± 0.12
LSEQDFVSVFGITRGQFAALIGWKQLQMKKEKGLF [P21I]	-0.536 ± 0.15
LSEQDFVSVFGITRGQFAALRGWKQLQMKKEKGLF [P21R]	-0.614 ± 0.056
LSEQDFVSVFGITRGQFAALSGWKQLQMKKEKGLF [P21S]	-0.225 ± 0.079
LSEQDFVSVFGITRGQFAALLGWKQLQMKKEKGLF [P21L]	-0.509 ± 0.064
LSEQDFVSVFGITRGQFAALFGWKQLQMKKEKGLF [P21F]	-0.696 ± 0.21
LSEQDFVSVFGITRGQFAALHGWKQLQMKKEKGLF [P21H]	-0.534 ± 0.085
LSEQDFVSVFGITRGQFAALDGWKQLQMKKEKGLF [P21D]	-0.54 ± 0.11
LSEQDFVSVFGITRGQFAALKGWKQLQMKKEKGLF [P21K]	-0.413 ± 0.095
LSEQDFVSVFGITRGQFAALCGWKQLQMKKEKGLF [P21C]	-0.436 ± 0.11
LSEQDFVSVFGITRGQFAALYGWKQLQMKKEKGLF [P21Y]	-0.668 ± 0.11
LSEQDFVSVFGITRGQFAALMGWKQLQMKKEKGLF [P21M]	-0.64 ± 0.16
LSEQDFVSVFGITRGQFAALPGWFQLQMKKEKGLF [K24F]	-0.403 ± 0.16
LSEQDFVSVFGITRGQFAALPGWGQLQMKKEKGLF [K24G]	-0.488 ± 0.089
LSEQDFVSVFGITRGQFAALPGWCQLQMKKEKGLF [K24C]	-0.342 ± 0.11
LSEQDFVSVFGITRGQFAALPGWEQLQMKKEKGLF [K24E]	-0.142 ± 0.097
LSEQDFVSVFGITRGQFAALPGWDQLQMKKEKGLF [K24D]	-0.143 ± 0.1
LSEQDFVSVFGITRGQFAAWPGWKQLQMKKEKGLF [L20W]	-0.91 ± 0.16
LSEQDFVSVFGITRGQFAAVPGWKQLQMKKEKGLF [L20V]	-0.753 ± 0.11

Variant	abundance fitness
LSEQDFVSVFGITRGQFAAMPGWKQLQMKKEKGLF [L20M]	-0.211 ± 0.056
LSEQDFVSVFGITRGQFAATPGWKQLQMKKEKGLF [L20T]	-0.424 ± 0.079
LSEQDFVSVFGITRGQFAARPGWKQLQMKKEKGLF [L20R]	-0.563 ± 0.059
LSEQDFVSVFGITRGQFAAPPGWKQLQMKKEKGLF [L20P]	-0.759 ± 0.12
LSEQDFVSVFGITRGQFAASPGWKQLQMKKEKGLF [L20S]	-0.328 ± 0.062
LSEQDFVSVFGITRGQFAANPGWKQLQMKKEKGLF [L20N]	-0.248 ± 0.21
LSEQDFVSVFGITRGQFAAQPGWKQLQMKKEKGLF [L20Q]	-0.368 ± 0.1
LSEQDFVSVFGITRGQFAAYPGWKQLQMKKEKGLF [L20Y]	-0.106 ± 0.19
LSEQDFVSVFGITRGQFAALPFWKQLQMKKEKGLF [G22F]	-0.138 ± 0.079
LSEQDFVSVFGITRGQFAALPVWKQLQMKKEKGLF [G22V]	-0.021 ± 0.082
LSEQDFVSVFGITRGQFAALPLWKQLQMKKEKGLF [G22L]	-0.074 ± 0.091
LSEQDFVSVFGITRGQFAALPKWKQLQMKKEKGLF [G22K]	0.064 ± 0.073
LSEQDFVSVFGITRGQFAALPDWKQLQMKKEKGLF [G22D]	-0.104 ± 0.14
LSEQDFVSVFGITRGQFAALPSWKQLQMKKEKGLF [G22S]	-0.108 ± 0.078
LSEQDFVSVFGITRGQFAALPIWKQLQMKKEKGLF [G22I]	-0.162 ± 0.1
LSEQDFVSVFGITRGQFAALPPWKQLQMKKEKGLF [G22P]	0.067 ± 0.065
LSEQDFVSVFGITRGQFAALPYWKQLQMKKEKGLF [G22Y]	-0.093 ± 0.1
LSEQDFVSVFGITRGQFAALPHWKQLQMKKEKGLF [G22H]	0.082 ± 0.15
LSEQDFVSVFGITRGQFAALPEWKQLQMKKEKGLF [G22E]	0.069 ± 0.079
LSEQDFVSVFGITRGQFAALPWWKQLQMKKEKGLF [G22W]	-0.405 ± 0.076
LSEQDFVSVFGITRGQFAALPAWKQLQMKKEKGLF [G22A]	-0.016 ± 0.083
LSEQDFVSVFGITRGQFAALPTWKQLQMKKEKGLF [G22T]	0.005 ± 0.086
LSEQDFVSVFGITRGQFAALPNWKQLQMKKEKGLF [G22N]	-0.2 ± 0.11
LSEQDFVSVFGITRGQFAALPQWKQLQMKKEKGLF [G22Q]	0.01 ± 0.079

Variant	abundance fitness
LSEQDFVSVFGITRGQFAALPMWKQLQMKKEKGLF [G22M]	-0.084 ± 0.098
LSEQDFVSVFGITRGQFAALPCWKQLQMKKEKGLF [G22C]	-0.44 ± 0.16
LSEQDFVSVFGITRGQFAALPRWKQLQMKKEKGLF [G22R]	-0.099 ± 0.062
LSEQDFVSVFGITRGQFAALPGAKQLQMKKEKGLF [W23A]	-0.134 ± 0.062
LSEQDFVSVFGITRGQFAALPGQKQLQMKKEKGLF [W23Q]	-0.213 ± 0.093
LSEQDFVSVFGITRGQFAALPGDKQLQMKKEKGLF [W23D]	0.005 ± 0.098
LSEQDFVSVFGITRGQFAALPGFKQLQMKKEKGLF [W23F]	-0.22 ± 0.19
LSEQDFVSVFGITRGQFAALPGYKQLQMKKEKGLF [W23Y]	-0.211 ± 0.14
LSEQDFVSVFGITRGQFAALPGNKQLQMKKEKGLF [W23N]	-0.319 ± 0.09
LSEQDFVSVFGITRGQFAALPGPKQLQMKKEKGLF [W23P]	-0.188 ± 0.065
LSEQDFVSVFGITRGQFAALPGLKQLQMKKEKGLF [W23L]	-0.233 ± 0.064
LSEQDFVSVFGITRGQFAALPGEKQLQMKKEKGLF [W23E]	0.081 ± 0.063
LSEQDFVSVFGITRGQFAALPGSKQLQMKKEKGLF [W23S]	-0.092 ± 0.061
LSEQDFVSVFGITRGQFAALPGVKQLQMKKEKGLF [W23V]	-0.11 ± 0.078
LSEQDFVSVFGITRGQFAALPGKKQLQMKKEKGLF [W23K]	-0.042 ± 0.077
LSEQDFVSVFGITRGQFAALPGHKQLQMKKEKGLF [W23H]	-0.101 ± 0.086
LSEQDFVSVFGITRGQFAALPGRKQLQMKKEKGLF [W23R]	-0.202 ± 0.058
LSEQDFVSVFGITRGQFAALPGIKQLQMKKEKGLF [W23I]	-0.284 ± 0.1
LSEQDFVSVFGITRGQFAALPGCKQLQMKKEKGLF [W23C]	-0.235 ± 0.11
LSEQDFVSVFGITRGQFAALPGMKQLQMKKEKGLF [W23M]	-0.108 ± 0.14
LSEQDFVSVFGITRGQFAALPGGKQLQMKKEKGLF [W23G]	-0.238 ± 0.056
LSEQDFVSVFGITRGQFAALPGTKQLQMKKEKGLF [W23T]	-0.228 ± 0.067
